Reference: paper PMC9293896
Numbering of substitutions follows the chain as printed.

How the values were obtained:
[1] = target: OTR Q295A, N-terminal SNAP-tag (human) (UniProt P30559)
[2] = target: OTR-D153Y, N-terminal SNAP-tag (human) (UniProt P30559)
[3] = target: OTR W188A, N-terminal SNAP-tag (human) (UniProt P30559)
[4] = target: OTR F292A, N-terminal SNAP-tag (human) (UniProt P30559)
[5] = target: OTR Q119A, N-terminal SNAP-tag (human) (UniProt P30559)
[6] = target: wild-type human oxytocin receptor, full length, N-terminal SNAP-tag (human) (UniProt P30559)
[7] = target: OTR Q92A, N-terminal SNAP-tag (human) (UniProt P30559)
[8] = target: OTR F175A, N-terminal SNAP-tag (human) (UniProt P30559)
[9] = target: OTR Q171N, N-terminal SNAP-tag (human) (UniProt P30559)
[10] = target: OTR F291A, N-terminal SNAP-tag (human) (UniProt P30559)
[11] = target: OTR L316A, N-terminal SNAP-tag (human) (UniProt P30559)
[12] = target: T1, truncated V1AR (residues 1-378 with C-terminal mutation T378K), N-terminal SNAP-tag (human) (UniProt P37288)
T1 sequence: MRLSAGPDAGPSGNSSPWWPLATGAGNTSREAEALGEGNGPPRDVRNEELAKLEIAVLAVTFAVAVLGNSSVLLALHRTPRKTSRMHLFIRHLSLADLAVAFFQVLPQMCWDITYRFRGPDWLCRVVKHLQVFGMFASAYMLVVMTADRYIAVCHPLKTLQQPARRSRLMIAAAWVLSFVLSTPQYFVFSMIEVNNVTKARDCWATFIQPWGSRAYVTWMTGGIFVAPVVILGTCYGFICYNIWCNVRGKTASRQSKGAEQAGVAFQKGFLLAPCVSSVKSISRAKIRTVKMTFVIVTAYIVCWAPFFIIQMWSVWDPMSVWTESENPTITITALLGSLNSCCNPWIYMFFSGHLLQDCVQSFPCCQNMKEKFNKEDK

[13] = target: OTR Q171A, N-terminal SNAP-tag (human) (UniProt P30559)
[14] = target: OTR I201A, N-terminal SNAP-tag (human) (UniProt P30559)
[15] = target: T2, truncated V1AR (residues 1-378, T378K) G337A, N-terminal SNAP-tag (human) (UniProt P37288)
T2 sequence: T1 sequence with G337A

[16] = target: OTR A318G, N-terminal SNAP-tag (human) (UniProt P30559)
[17] = target: OTR K116A, N-terminal SNAP-tag (human) (UniProt P30559)
[18] = target: OTR Q96A, N-terminal SNAP-tag (human) (UniProt P30559)
[19] = target: OTR-D153Y, N-terminal SNAP-tag (human) (UniProt P30559); assay: AlphaScreen or HTRF; whole-cell saturation binding; SNAP-tagged receptor on transfected HEK293T/17 cells labelled with SNAP-Lumi4-Tb; concentration range of HiLyte Fluor 488-Orn8 oxytocin, 1 h at room temperature in 20 mM Hepes pH 7.5, 100 mM KCl, 3 mM MgCl2, 0.05% BSA; nonspecific binding with 1000-fold excess of unlabelled oxytocin; one-site saturation fit
[20] = target: wild-type human oxytocin receptor, full length, N-terminal SNAP-tag (human) (UniProt P30559); assay: as above
[21] = target: T1, truncated V1AR (residues 1-378 with C-terminal mutation T378K), N-terminal SNAP-tag (human); assay: as above
[22] = target: T2, truncated V1AR (residues 1-378, T378K) G337A, N-terminal SNAP-tag (human); assay: as above
[23] = target: OTR A318G, N-terminal SNAP-tag (human) (UniProt P30559); assay: as above

Sequence of oxytocin (P01178 whole entry, looked up, the tested form may be a part): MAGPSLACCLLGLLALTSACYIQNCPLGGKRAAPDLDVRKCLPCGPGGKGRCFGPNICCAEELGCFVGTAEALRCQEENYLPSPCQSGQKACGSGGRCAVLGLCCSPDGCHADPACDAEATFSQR

**Q.** How did the OT-induced IP1 accumulation (HTRF IP-One) in transfected HEK293T cells, EC50 [1] turn out when “oxytocin (from UniProt P01178 20-28) (peptide)” was run?
**A.** 51.3 nM

**Q.** What about the OT-induced IP1 accumulation (HTRF IP-One) in transfected HEK293T cells, EC50 [2] of the same substance?
**A.** 42.9 nM

**Q.** What about the OT-induced IP1 accumulation (HTRF IP-One) in transfected HEK293T cells, EC50 [3] of the same substance?
**A.** 156 nM

**Q.** And the OT-induced IP1 accumulation (HTRF IP-One) in transfected HEK293T cells, EC50 [4]?
**A.** 6.1 nM

**Q.** What about the OT-induced IP1 accumulation (HTRF IP-One) in transfected HEK293T cells, EC50 [5] of the same substance?
**A.** 444 nM

**Q.** What about the OT-induced IP1 accumulation (HTRF IP-One) in transfected HEK293T cells, EC50 [6] of the same substance?
**A.** 8.4 nM

**Q.** What about the OT-induced IP1 accumulation (HTRF IP-One) in transfected HEK293T cells, EC50 [7] of the same substance?
**A.** 222 nM

**Q.** And the OT-induced IP1 accumulation (HTRF IP-One) in transfected HEK293T cells, EC50 [8]?
**A.** 3.48 µM

**Q.** What about the OT-induced IP1 accumulation (HTRF IP-One) in transfected HEK293T cells, EC50 [9] of the same substance?
**A.** 39.1 nM

**Q.** And the OT-induced IP1 accumulation (HTRF IP-One) in transfected HEK293T cells, EC50 [10]?
**A.** 542 nM

**Q.** What about the OT-induced IP1 accumulation (HTRF IP-One) in transfected HEK293T cells, EC50 [11] of the same substance?
**A.** 21.9 nM

**Q.** And the OT-induced IP1 accumulation (HTRF IP-One) in transfected HEK293T cells, EC50 [12]?
**A.** 158 nM

**Q.** And the OT-induced IP1 accumulation (HTRF IP-One) in transfected HEK293T cells, EC50 [13]?
**A.** 992 nM

**Q.** And the OT-induced IP1 accumulation (HTRF IP-One) in transfected HEK293T cells, EC50 [14]?
**A.** 89.5 nM

**Q.** What about the OT-induced IP1 accumulation (HTRF IP-One) in transfected HEK293T cells, EC50 [15] of the same substance?
**A.** 250 nM

**Q.** And the OT-induced IP1 accumulation (HTRF IP-One) in transfected HEK293T cells, EC50 [16]?
**A.** 4.6 nM

**Q.** What about the OT-induced IP1 accumulation (HTRF IP-One) in transfected HEK293T cells, EC50 [17] of the same substance?
**A.** 6.1 nM

**Q.** And the OT-induced IP1 accumulation (HTRF IP-One) in transfected HEK293T cells, EC50 [18]?
**A.** 1540 nM

**Q.** What does the source list for “HiLyte Fluor 488-Orn^8 oxytocin (from UniProt P01178 20-28) (peptide)”?
**A.** Kd [19]: 6.4 nM; Kd [20]: 1.4 nM; Kd [21]: 9.3 nM; Kd [22]: 20.9 nM; Kd [23]: 0.9 nM
